Assay results: US20140378374A1, “METHODS OF TREATMENT” (GlaxoSmithKline Intellectual Property (No.2) Limited, priority 2013, published 2014)
Where two headings read alike, the source gives them in different places.

How the values were obtained:
patients with T2D and RI = assay type: in vivo, human; conditions: for Model-adjusted change from baseline A1C, LS mean (SE): ANCOVA
Protocol: Therapies for type 2 diabetes mellitus (T2DM) with renal impairment (RI) are limited and may require dose adjustment. This 52-week randomized, double blind, active controlled, Phase III parallel group study examined efficacy/safety of QW Albi injections (30 mg uptitrated to 50 mg if needed) vs daily Sita in patients with T2D and RI (eGFR≧15 and <90 mL/min/1.73 m^2) and A1C 7-10% on lifestyle (11% of subjects) or metformin (Met), thiazoldinedone (TZD), sulfonylureas (SU), or any combination (89% of patients). […] Primary endpoint was A1C change at week 26 for Albi vs Sita (noninferiority with subsequent superiority analysis). Eligible subjects were men or non pregnant, nonlactating women, 18 years of age or older, with a historical diagnosis of T2DM who were experiencing inadequate glycemic control on their current regimen of diet and exercise or their antidiabetic therapy of metformin, TZD, SU, or any combination of these OAD medications.

patients with T2DM = test: Phase 3 pooled analysis (Harmony 2, 4, 5, 8) of efficacy and safety by renal impairment severity, through primary endpoint (26 to 52 weeks)
Protocol: Patients with T2DM were enrolled in 3 similarly designed Phase 3 studies ^11-13 (Harmony 2, Harmony 4 and Harmony 5) and one Phase 3 study in patients with varying degrees of renal impairment (Harmony 8). ^10 These studies were randomized, double-blind (one open-label), active- (sitagliptin, pioglitazone, or glimepiride) or placebo-controlled, parallel-group, multicenter trials in which albiglutide (30 to 50 mg) was administered once weekly. In all 4 studies, men and nonpregnant women who were ≧18 years of age with a historical diagnosis of T2DM, and who were inadequately controlled (HbA1c≧7.0% and ≦10.0%) on diet and exercise and/or their current regimen of anti-diabetic agents (ie, metformin, thiazolidinedione, sulfonylurea, or any combination of these oral anti-diabetic medications) were eligible to enroll. Additional eligibility criteria included fasting C peptide of ≧0.8 ng/mL (≧0.26 nmol/L) and BMI between 20 and 45 kg/m^2. Harmony 8, the study in CKD patients, required estimated GFR≧15 and <90 mL/min/1.73 m^2, whereas the other 3 studies required estimated GFR>60 mL/min/1.73 m^2. […] Patients who met additional exclusion criteria, including requirements for levels of total bilirubin, alanine aminotransferase, aspartate aminotransferase, amylase, lipase, fasting triglycerides, and hemoglobin were also excluded.
Efficacy (HbA1c, fasting plasma glucose [FPG] and body weight) was assessed in each of the 4 studies by change from baseline to the primary endpoint (week 26 to week 52) using last observation carried forward for missing data. Rescue medications were allowed in subjects with persistent hyperglycemia (REF), however, efficacy data obtained after hyperglycemic rescue were not included and replaced with pre-rescue values for efficacy evaluation. Safety was assessed by monitoring the incidence of treatment emergent adverse events throughout the studies.
To evaluate efficacy and tolerability in different renal population, efficacy and tolerability data from patients with pop PK sample across 4 Phase 3 studies were extracted. Descriptive analysis were conducted up to primary endpoint (week 52 for Harmony 2, Harmony 4 and Harmony 5 and week 26 for study Harmony 8). Baseline demographics are summarized by renal impairment severity (normal, mild, moderate and severe). Efficacy parameters such as change from baseline of HbA1c, FPG, weight are also summarized by renal impairment severity. LOCF (Last Observation Carried Forward) approach is used in efficacy evaluation. Except for hypoglycemia, tolerability (AE, SAE and AE cause withdraw) were summarized by renal impairment severity for all data up to primary endpoint including post-rescue data. Hypoglycemia events (severe and documented symptomatic) were evaluated by renal impairment severity only include pre-rescue data.

[1] = Week 26, Moderate RI (eGFR 30-59)
[2] = Week 26, Severe RI (eGFR 15-29)
[3] = range over renal function groups of the pooled analysis

Substance: Albiglutide: recombinant fusion protein of 2 copies of modified human GLP-1 (fragment 7-36(A8G)) genetically fused in series to recombinant human serum albumin
- Week 26 A1C, mean (patients with T2D and RI; Any RI (eGFR 15-89)): 7.27%
- Week 26 A1C, mean (patients with T2D and RI; Mild RI (eGFR 60-89 mL/min/1.73 m2)): 7.23%
- Week 26 A1C, mean (patients with T2D and RI; Moderate RI (eGFR 30-59)): 7.37%
- A1C change at week 26, Albi vs Sita, superiority analysis (patients with T2D and RI; P=0.0003): superior
- Week 26 A1C, mean (patients with T2D and RI; Severe RI (eGFR 15-29)): 6.97%
- A1C<7% achieved, patients (patients with T2D and RI; Week 26): 42.6%
- FPG change (patients with T2D and RI; Week 26): -25.6 mg/dL
- weight change (patients with T2D and RI; Week 26): -0.8 kg
- Model-adjusted change from baseline A1C, LS mean (SE) (patients with T2D and RI; Week 26, Any RI (eGFR 15-89)): −0.83%
- Model-adjusted change from baseline A1C, LS mean (SE) (patients with T2D and RI; Week 26, Mild RI (eGFR 60-89)): −0.80%
- Model-adjusted change from baseline A1C, LS mean (SE) (patients with T2D and RI; [1]): −0.83%
- Model-adjusted change from baseline A1C, LS mean (SE) (patients with T2D and RI; [2]): −1.08%
- Change from baseline A1C, mean (SD) (patients with T2D and RI; Week 26, Any RI (eGFR 15-89)): −0.82%
- Difference of LS means from sitagliptin (95% CI), A1C (patients with T2D and RI; Week 26, Any RI (eGFR 15-89)): 0.32%
- Difference of LS means from sitagliptin (95% CI), A1C (patients with T2D and RI; Week 26, Any RI (eGFR 15-89), listed as Albi): −0.32%
- Change from baseline A1C, mean (SD) (patients with T2D and RI; Week 26, Mild RI (eGFR 60-89)): −0.72%
- Difference of LS means from sitagliptin (95% CI), A1C (patients with T2D and RI; Week 26, Mild RI (eGFR 60-89)): −0.13%
- Change from baseline A1C, mean (SD) (patients with T2D and RI; [1]): −0.88%
- Difference of LS means from sitagliptin (95% CI), A1C (patients with T2D and RI; [1]): −0.53%
- Change from baseline A1C, mean (SD) (patients with T2D and RI; [2]): −1.08%
- Difference of LS means from sitagliptin (95% CI), A1C (patients with T2D and RI; [2]): −0.47%
- Adverse Event rate: diarrhea (patients with T2D and RI; in vivo): 8.8%
- Adverse Event rate: nausea (patients with T2D and RI; in vivo): 4.8%
- Adverse Event rate: vomiting (patients with T2D and RI; in vivo): 1.6%
- Anti-Albi antibody rate (patients with T2D and RI; in vivo): 2.8%
- Anti-Albi antibody, neutralizing (patients with T2D and RI; in vivo): 0%
- Hypoglycemia rate (patients with T2D and RI; in vivo): 20.5%
- Hypoglycemia, severe (number) (patients with T2D and RI; in vivo): 0
- Injection site reaction rate (patients with T2D and RI; in vivo): 6.8%
- On-therapy adverse event: Constipation (patients with T2D and RI; in vivo): 15 (6.0) n (%)
- On-therapy adverse event: Diarrhea (patients with T2D and RI; in vivo): 22 (8.8) n (%)
- On-therapy adverse event: Hypertension (patients with T2D and RI; in vivo): 10 (4.0) n (%)
- On-therapy adverse event: Nasopharyngitis (patients with T2D and RI; in vivo): 13 (5.2) n (%)
- On-therapy adverse event: Upper respiratory tract infection (patients with T2D and RI; in vivo): 9 (3.6) n (%)
- On-therapy adverse event: Urinary tract infection (patients with T2D and RI; in vivo): 8 (3.2) n (%)
- neutralizing anti-albiglutide antibodies (patients with T2DM; 4 trials of the pooled analysis): none of the antibodies were neutralizing
- Pre-Rescue Hypoglycemia: Documented Symptomatic, With background SU (patients with T2DM; Mild): 70 (17) N (%)
- Pre-Rescue Hypoglycemia: Documented Symptomatic, Without background SU (patients with T2DM; Mild): 3 (1.4) N (%)
- Pre-Rescue Hypoglycemia: Severe, With background SU (patients with T2DM; Mild): 1 (0.2) N (%)
- Pre-Rescue Hypoglycemia: Severe, Without background SU (patients with T2DM; Mild): 0 (0) N (%)
- AEs leading to withdrawal (patients with T2DM; Mild (n = 633)): 37 (5.8) N (%)
- Abdominal distention (patients with T2DM; Mild (n = 633)): 5 (0.8) N (%)
- Anemia (patients with T2DM; Mild (n = 633)): 15 (2.4) N (%)
- Any AE (patients with T2DM; Mild (n = 633)): 511 (81) N (%)
- Constipation (patients with T2DM; Mild (n = 633)): 25 (3.9) N (%)
- Diarrhea (patients with T2DM; Mild (n = 633)): 55 (8.7) N (%)
- Edema peripheral (patients with T2DM; Mild (n = 633)): 21 (3.3) N (%)
- Gastrointestinal disorders system organ class: Any event (patients with T2DM; Mild (n = 633)): 205 (32) N (%)
- Injection site reaction (patients with T2DM; Mild (n = 633)): 51 (8.1) N (%)
- Nasopharyngitis (patients with T2DM; Mild (n = 633)): 51 (8.1) N (%)
- Nausea (patients with T2DM; Mild (n = 633)): 60 (9.5) N (%)
- Pre-Rescue Hypoglycemia: Documented Symptomatic (overall) (patients with T2DM; Mild (n = 633)): 73 (12) N (%)
- Pre-Rescue Hypoglycemia: Severe (overall) (patients with T2DM; Mild (n = 633)): 1 (0.2) N (%)
- Renal Impairment (adverse event) (patients with T2DM; Mild (n = 633)): 0 (0) N (%)
- Serious AE (patients with T2DM; Mild (n = 633)): 52 (8.2) N (%)
- Pre-Rescue Hypoglycemia: Documented Symptomatic, With background SU (patients with T2DM; Moderate): 28 (20) N (%)
- Pre-Rescue Hypoglycemia: Documented Symptomatic, Without background SU (patients with T2DM; Moderate): 0 (0) N (%)
- Pre-Rescue Hypoglycemia: Severe, With background SU (patients with T2DM; Moderate): 0 (0) N (%)
- Pre-Rescue Hypoglycemia: Severe, Without background SU (patients with T2DM; Moderate): 0 (0) N (%)
- AEs leading to withdrawal (patients with T2DM; Moderate (n = 175)): 11 (6.3) N (%)
- Abdominal distention (patients with T2DM; Moderate (n = 175)): 2 (1.1) N (%)
- Anemia (patients with T2DM; Moderate (n = 175)): 5 (2.9) N (%)
- Any AE (patients with T2DM; Moderate (n = 175)): 139 (79) N (%)
- Constipation (patients with T2DM; Moderate (n = 175)): 11 (6.3) N (%)
- Diarrhea (patients with T2DM; Moderate (n = 175)): 23 (13) N (%)
- Edema peripheral (patients with T2DM; Moderate (n = 175)): 4 (2.3) N (%)
- Gastrointestinal disorders system organ class: Any event (patients with T2DM; Moderate (n = 175)): 58 (33) N (%)
- Injection site reaction (patients with T2DM; Moderate (n = 175)): 12 (6.9) N (%)
- Nasopharyngitis (patients with T2DM; Moderate (n = 175)): 14 (8.0) N (%)
- Nausea (patients with T2DM; Moderate (n = 175)): 13 (7.4) N (%)
- Pre-Rescue Hypoglycemia: Documented Symptomatic (overall) (patients with T2DM; Moderate (n = 175)): 28 (16) N (%)
- Pre-Rescue Hypoglycemia: Severe (overall) (patients with T2DM; Moderate (n = 175)): 0 (0) N (%)
- Renal Impairment (adverse event) (patients with T2DM; Moderate (n = 175)): 3 (1.7) N (%)
- Serious AE (patients with T2DM; Moderate (n = 175)): 17 (9.7) N (%)
- Pre-Rescue Hypoglycemia: Documented Symptomatic, With background SU (patients with T2DM; Normal): 44 (21) N (%)
- Pre-Rescue Hypoglycemia: Documented Symptomatic, Without background SU (patients with T2DM; Normal): 0 (0) N (%)
- Pre-Rescue Hypoglycemia: Severe, With background SU (patients with T2DM; Normal): 1 (0.3) N (%)
- Pre-Rescue Hypoglycemia: Severe, Without background SU (patients with T2DM; Normal): 0 (0) N (%)
- AEs leading to withdrawal (patients with T2DM; Normal (n = 286)): 11 (3.8) N (%)
- Abdominal distention (patients with T2DM; Normal (n = 286)): 2 (0.7) N (%)
- Anemia (patients with T2DM; Normal (n = 286)): 6 (2.1) N (%)
- Any AE (patients with T2DM; Normal (n = 286)): 232 (81) N (%)
- Constipation (patients with T2DM; Normal (n = 286)): 8 (2.8) N (%)
- Diarrhea (patients with T2DM; Normal (n = 286)): 20 (7.0) N (%)
- Edema peripheral (patients with T2DM; Normal (n = 286)): 5 (1.7) N (%)
- Gastrointestinal disorders system organ class: Any event (patients with T2DM; Normal (n = 286)): 76 (27) N (%)
- Injection site reaction (patients with T2DM; Normal (n = 286)): 32 (11) N (%)
- Nasopharyngitis (patients with T2DM; Normal (n = 286)): 19 (6.6) N (%)
- Nausea (patients with T2DM; Normal (n = 286)): 23 (8.0) N (%)
- Pre-Rescue Hypoglycemia: Documented Symptomatic (overall) (patients with T2DM; Normal (n = 286)): 44 (15) N (%)
- Pre-Rescue Hypoglycemia: Severe (overall) (patients with T2DM; Normal (n = 286)): 1 (0.3) N (%)
- Renal Impairment (adverse event) (patients with T2DM; Normal (n = 286)): 0 (0) N (%)
- Serious AE (patients with T2DM; Normal (n = 286)): 17 (5.9) N (%)
- Pre-Rescue Hypoglycemia: Documented Symptomatic, With background SU (patients with T2DM; Severe): 4 (29) N (%)
- Pre-Rescue Hypoglycemia: Documented Symptomatic, Without background SU (patients with T2DM; Severe): 0 (0) N (%)
- Pre-Rescue Hypoglycemia: Severe, With background SU (patients with T2DM; Severe): 0 (0) N (%)
- Pre-Rescue Hypoglycemia: Severe, Without background SU (patients with T2DM; Severe): 0 (0) N (%)
- AEs leading to withdrawal (patients with T2DM; Severe (n = 19)): 2 (11) N (%)
- Abdominal distention (patients with T2DM; Severe (n = 19)): 2 (11) N (%)
- Anemia (patients with T2DM; Severe (n = 19)): 4 (21) N (%)
- Any AE (patients with T2DM; Severe (n = 19)): 12 (63) N (%)
- Constipation (patients with T2DM; Severe (n = 19)): 2 (11) N (%)
- Diarrhea (patients with T2DM; Severe (n = 19)): 4 (21) N (%)
- Edema peripheral (patients with T2DM; Severe (n = 19)): 3 (16) N (%)
- Gastrointestinal disorders system organ class: Any event (patients with T2DM; Severe (n = 19)): 8 (42) N (%)
- Injection site reaction (patients with T2DM; Severe (n = 19)): 1 (5.3) N (%)
- Nasopharyngitis (patients with T2DM; Severe (n = 19)): 1 (5.3) N (%)
- Nausea (patients with T2DM; Severe (n = 19)): 3 (16) N (%)
- Pre-Rescue Hypoglycemia: Documented Symptomatic (overall) (patients with T2DM; Severe (n = 19)): 4 (21) N (%)
- Pre-Rescue Hypoglycemia: Severe (overall) (patients with T2DM; Severe (n = 19)): 0 (0) N (%)
- Renal Impairment (adverse event) (patients with T2DM; Severe (n = 19)): 4 (21) N (%)
- Serious AE (patients with T2DM; Severe (n = 19)): 0 (0) N (%)
- treatment effect as measured by HbA1c and FPG vs GFR (patients with T2DM; change from baseline, scatter plot): trend towards greater reductions as GFR decreased
- thyroid cancer (patients with T2DM; in vivo): No patient developed thyroid cancer
- nausea, percentage (patients with T2DM; mild group): 9.5%
- vomiting, percentage (patients with T2DM; mild group): 3.2%
- nausea, percentage (patients with T2DM; moderate group): 7.4%
- vomiting, percentage (patients with T2DM; moderate group): 2.9%
- nausea, percentage (patients with T2DM; normal group): 8.0%
- vomiting, percentage (patients with T2DM; normal group): 2.1%
- subjects with severe hypoglycemic events (patients with T2DM; normal, mild renal impairment, with background SU use): 2
- patients with probable pancreatitis at least possibly related to study drug (patients with T2DM; one with mild and one with moderate renal impairment): Two
- nausea percentage, range (patients with T2DM; [3]): 7-16%
- vomiting percentage, range (patients with T2DM; [3]): 2-5%
- incidence of anti-albiglutide antibodies (patients with T2DM; range over the 4 trials of the pooled analysis): 2.8% to 8.1
- nausea, percentage (patients with T2DM; severe group): 16%
- vomiting, percentage (patients with T2DM; severe group): 5.3%
